Target: TMR-phalloidin-labelled biotinylated actin filaments (UniProt P68135 1-377, biotin (~1 biotin per monomer))
Experiment: optical trap, harmonic force spectroscopy

Binder | k0, detachment rate from actin at zero load
recombinant human β-cardiac myosin subfragment-1 (short S1, sS1, MYH7 residues 1-808) with C-termina (complex) chain 1: MGDSEMAVFGAAAPYLRKSEKERLEAQTRPFDLKKDVFVPDDKQEFVKAKIVSREGGKVTAETEYGKTVTVKEDQVMQQNPPKFDKIEDMAMLTFLHEPAVLYNLKDRYGSWMIYTYSGLFCVTVNPYKWLPVYTPEVVAAYRGKKRSEAPPHIFSISDNAYQYMLTDRENQSILITGESGAGKTVNTKRVIQYFAVIAAIGDRSKKDQSPGKGTLEDQIIQANPALEAFGNAKTVRNDNSSRFGKFIRIHFGATGKLASADIETYLLEKSRVIFQLKAERDYHIFYQILSNKKPELLDMLLITNNPYDYAFISQGETTVASIDDAEELMATDNAFDVLGFTSEEKNSMYKLTGAIMHFGNMKFKLKQREEQAEPDGTEEADKSAYLMGLNSADLLKGLCHPRVKVGNEYVTKGQNVQQVIYATGALAKAVYERMFNWMVTRINATLETKQPRQYFIGVLDIAGFEIFDFNSFEQLCINFTNEKLQQFFNHHMFVLEQEEYKKEGIEWTFIDFGMDLQACIDLIEKPMGIMSILEEECMFPKATDMTFKAKLFDNHLGKSANFQKPRNIKGKPEAHFSLIHYAGIVDYNIIGWLQKNKDPLNETVVGLYQKSSLKLLSTLFANYAGADAPIEKGKGKAKKGSSFQTVSALHRENLNKLMTNLRSTHPHFVRCIIPNETKSPGVMDNPLVMHQLRCNGVLEGIRICRKGFPNRILYGDFRQRYRILNPAAIPEGQFIDSRKGAEKLLSSLDIDHNQYKFGHTKVFFKAGLLGLLEEMRDERLSRIITRIQAQSRGVLARMEYKKLLERR chain 2: not shown | 102 s⁻¹
human β-cardiac myosin sS1-eGFP (MYH7 1-808) A223T with essential light chain (complex) chain 1: MGDSEMAVFGAAAPYLRKSEKERLEAQTRPFDLKKDVFVPDDKQEFVKAKIVSREGGKVTAETEYGKTVTVKEDQVMQQNPPKFDKIEDMAMLTFLHEPAVLYNLKDRYGSWMIYTYSGLFCVTVNPYKWLPVYTPEVVAAYRGKKRSEAPPHIFSISDNAYQYMLTDRENQSILITGESGAGKTVNTKRVIQYFAVIAAIGDRSKKDQSPGKGTLEDQIIQTNPALEAFGNAKTVRNDNSSRFGKFIRIHFGATGKLASADIETYLLEKSRVIFQLKAERDYHIFYQILSNKKPELLDMLLITNNPYDYAFISQGETTVASIDDAEELMATDNAFDVLGFTSEEKNSMYKLTGAIMHFGNMKFKLKQREEQAEPDGTEEADKSAYLMGLNSADLLKGLCHPRVKVGNEYVTKGQNVQQVIYATGALAKAVYERMFNWMVTRINATLETKQPRQYFIGVLDIAGFEIFDFNSFEQLCINFTNEKLQQFFNHHMFVLEQEEYKKEGIEWTFIDFGMDLQACIDLIEKPMGIMSILEEECMFPKATDMTFKAKLFDNHLGKSANFQKPRNIKGKPEAHFSLIHYAGIVDYNIIGWLQKNKDPLNETVVGLYQKSSLKLLSTLFANYAGADAPIEKGKGKAKKGSSFQTVSALHRENLNKLMTNLRSTHPHFVRCIIPNETKSPGVMDNPLVMHQLRCNGVLEGIRICRKGFPNRILYGDFRQRYRILNPAAIPEGQFIDSRKGAEKLLSSLDIDHNQYKFGHTKVFFKAGLLGLLEEMRDERLSRIITRIQAQSRGVLARMEYKKLLERR chain 2: not shown | 104 s⁻¹
human β-cardiac myosin sS1-eGFP (MYH7 1-808) D239N with essential light chain (complex) chain 1: MGDSEMAVFGAAAPYLRKSEKERLEAQTRPFDLKKDVFVPDDKQEFVKAKIVSREGGKVTAETEYGKTVTVKEDQVMQQNPPKFDKIEDMAMLTFLHEPAVLYNLKDRYGSWMIYTYSGLFCVTVNPYKWLPVYTPEVVAAYRGKKRSEAPPHIFSISDNAYQYMLTDRENQSILITGESGAGKTVNTKRVIQYFAVIAAIGDRSKKDQSPGKGTLEDQIIQANPALEAFGNAKTVRNNNSSRFGKFIRIHFGATGKLASADIETYLLEKSRVIFQLKAERDYHIFYQILSNKKPELLDMLLITNNPYDYAFISQGETTVASIDDAEELMATDNAFDVLGFTSEEKNSMYKLTGAIMHFGNMKFKLKQREEQAEPDGTEEADKSAYLMGLNSADLLKGLCHPRVKVGNEYVTKGQNVQQVIYATGALAKAVYERMFNWMVTRINATLETKQPRQYFIGVLDIAGFEIFDFNSFEQLCINFTNEKLQQFFNHHMFVLEQEEYKKEGIEWTFIDFGMDLQACIDLIEKPMGIMSILEEECMFPKATDMTFKAKLFDNHLGKSANFQKPRNIKGKPEAHFSLIHYAGIVDYNIIGWLQKNKDPLNETVVGLYQKSSLKLLSTLFANYAGADAPIEKGKGKAKKGSSFQTVSALHRENLNKLMTNLRSTHPHFVRCIIPNETKSPGVMDNPLVMHQLRCNGVLEGIRICRKGFPNRILYGDFRQRYRILNPAAIPEGQFIDSRKGAEKLLSSLDIDHNQYKFGHTKVFFKAGLLGLLEEMRDERLSRIITRIQAQSRGVLARMEYKKLLERR chain 2: not shown | 140 s⁻¹
human β-cardiac myosin sS1-eGFP (MYH7 1-808) H251N with essential light chain (complex) chain 1: MGDSEMAVFGAAAPYLRKSEKERLEAQTRPFDLKKDVFVPDDKQEFVKAKIVSREGGKVTAETEYGKTVTVKEDQVMQQNPPKFDKIEDMAMLTFLHEPAVLYNLKDRYGSWMIYTYSGLFCVTVNPYKWLPVYTPEVVAAYRGKKRSEAPPHIFSISDNAYQYMLTDRENQSILITGESGAGKTVNTKRVIQYFAVIAAIGDRSKKDQSPGKGTLEDQIIQANPALEAFGNAKTVRNDNSSRFGKFIRINFGATGKLASADIETYLLEKSRVIFQLKAERDYHIFYQILSNKKPELLDMLLITNNPYDYAFISQGETTVASIDDAEELMATDNAFDVLGFTSEEKNSMYKLTGAIMHFGNMKFKLKQREEQAEPDGTEEADKSAYLMGLNSADLLKGLCHPRVKVGNEYVTKGQNVQQVIYATGALAKAVYERMFNWMVTRINATLETKQPRQYFIGVLDIAGFEIFDFNSFEQLCINFTNEKLQQFFNHHMFVLEQEEYKKEGIEWTFIDFGMDLQACIDLIEKPMGIMSILEEECMFPKATDMTFKAKLFDNHLGKSANFQKPRNIKGKPEAHFSLIHYAGIVDYNIIGWLQKNKDPLNETVVGLYQKSSLKLLSTLFANYAGADAPIEKGKGKAKKGSSFQTVSALHRENLNKLMTNLRSTHPHFVRCIIPNETKSPGVMDNPLVMHQLRCNGVLEGIRICRKGFPNRILYGDFRQRYRILNPAAIPEGQFIDSRKGAEKLLSSLDIDHNQYKFGHTKVFFKAGLLGLLEEMRDERLSRIITRIQAQSRGVLARMEYKKLLERR chain 2: not shown | 152 s⁻¹

Further lines, results first:

k0, detachment rate from actin at zero load | Binder
80 s⁻¹ | human β-cardiac myosin sS1-eGFP (MYH7 1-808) S532P with essential light chain (complex) chain 1: MGDSEMAVFGAAAPYLRKSEKERLEAQTRPFDLKKDVFVPDDKQEFVKAKIVSREGGKVTAETEYGKTVTVKEDQVMQQNPPKFDKIEDMAMLTFLHEPAVLYNLKDRYGSWMIYTYSGLFCVTVNPYKWLPVYTPEVVAAYRGKKRSEAPPHIFSISDNAYQYMLTDRENQSILITGESGAGKTVNTKRVIQYFAVIAAIGDRSKKDQSPGKGTLEDQIIQANPALEAFGNAKTVRNDNSSRFGKFIRIHFGATGKLASADIETYLLEKSRVIFQLKAERDYHIFYQILSNKKPELLDMLLITNNPYDYAFISQGETTVASIDDAEELMATDNAFDVLGFTSEEKNSMYKLTGAIMHFGNMKFKLKQREEQAEPDGTEEADKSAYLMGLNSADLLKGLCHPRVKVGNEYVTKGQNVQQVIYATGALAKAVYERMFNWMVTRINATLETKQPRQYFIGVLDIAGFEIFDFNSFEQLCINFTNEKLQQFFNHHMFVLEQEEYKKEGIEWTFIDFGMDLQACIDLIEKPMGIMPILEEECMFPKATDMTFKAKLFDNHLGKSANFQKPRNIKGKPEAHFSLIHYAGIVDYNIIGWLQKNKDPLNETVVGLYQKSSLKLLSTLFANYAGADAPIEKGKGKAKKGSSFQTVSALHRENLNKLMTNLRSTHPHFVRCIIPNETKSPGVMDNPLVMHQLRCNGVLEGIRICRKGFPNRILYGDFRQRYRILNPAAIPEGQFIDSRKGAEKLLSSLDIDHNQYKFGHTKVFFKAGLLGLLEEMRDERLSRIITRIQAQSRGVLARMEYKKLLERR chain 2: not shown
155 s⁻¹ | human β-cardiac myosin sS1-eGFP (MYH7 1-808) R237W with essential light chain (complex) chain 1: MGDSEMAVFGAAAPYLRKSEKERLEAQTRPFDLKKDVFVPDDKQEFVKAKIVSREGGKVTAETEYGKTVTVKEDQVMQQNPPKFDKIEDMAMLTFLHEPAVLYNLKDRYGSWMIYTYSGLFCVTVNPYKWLPVYTPEVVAAYRGKKRSEAPPHIFSISDNAYQYMLTDRENQSILITGESGAGKTVNTKRVIQYFAVIAAIGDRSKKDQSPGKGTLEDQIIQANPALEAFGNAKTVWNDNSSRFGKFIRIHFGATGKLASADIETYLLEKSRVIFQLKAERDYHIFYQILSNKKPELLDMLLITNNPYDYAFISQGETTVASIDDAEELMATDNAFDVLGFTSEEKNSMYKLTGAIMHFGNMKFKLKQREEQAEPDGTEEADKSAYLMGLNSADLLKGLCHPRVKVGNEYVTKGQNVQQVIYATGALAKAVYERMFNWMVTRINATLETKQPRQYFIGVLDIAGFEIFDFNSFEQLCINFTNEKLQQFFNHHMFVLEQEEYKKEGIEWTFIDFGMDLQACIDLIEKPMGIMSILEEECMFPKATDMTFKAKLFDNHLGKSANFQKPRNIKGKPEAHFSLIHYAGIVDYNIIGWLQKNKDPLNETVVGLYQKSSLKLLSTLFANYAGADAPIEKGKGKAKKGSSFQTVSALHRENLNKLMTNLRSTHPHFVRCIIPNETKSPGVMDNPLVMHQLRCNGVLEGIRICRKGFPNRILYGDFRQRYRILNPAAIPEGQFIDSRKGAEKLLSSLDIDHNQYKFGHTKVFFKAGLLGLLEEMRDERLSRIITRIQAQSRGVLARMEYKKLLERR chain 2: not shown

Source: paper PMC6092189 (Nature structural & molecular biology, 2018)
